Measured values as given in the supplement of paper PMC9170038.

Columns and labels:
MS2 coat protein [1] = assay: apparent KD of MS2 coat protein; designed switch direction (-1 OFF switch, 1 ON switch): 1; higher = weaker reporter binding
Outline: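 Designed RNA switches with common flanks were made on Illumina chips by stalled E. coli RNA polymerase. Titration with SNAP-549-labelled MS2 coat protein doubled from 0.7 or 1.5 nM up to 3 µM. Apparent KD is each design's median over clusters after curve-fitting normalised fluorescence.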

MS2 coat protein [2] = assay: apparent KD of MS2 coat protein; higher = weaker reporter binding; settings: Eterna round: R107
Outline: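 Binding of SNAP-549-labelled MS2 coat protein was measured on designed RNA switches transcribed on-chip from Illumina sequencing clusters. The protein rose in twofold steps from 0.7 or 1.5 nM to 3 µM, with 0.8–1.5 h per step early on and 10–20 min per step later, in 100 mM Tris-HCl pH 7.5, 80 mM KCl, 4 mM MgCl2, without or with constant ligand. Each design's apparent KD is the median of fits to its normalised cluster binding curves.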

[3] = input ligand: microRNA oligo, concentration not stated
[4] = input ligand: theophylline 20 uM
[5] = input ligand: tryptophan 2.4 mM
[6] = input ligand: theophylline 2 mM

| Sequence | apparent KD of MS2 coat protein (MS2 coat protein [2]; input ligand: arginine 13.2 mM) | apparent KD of MS2 coat protein (MS2 coat protein [2]; [4]) | apparent KD of MS2 coat protein (MS2 coat protein [2]; [5]) | apparent KD of MS2 coat protein (MS2 coat protein [2]; [6]) | apparent KD of MS2 coat protein (MS2 coat protein [2]; input ligand: none) | other results |
| --- | --- | --- | --- | --- | --- | --- |
| AAGAAUCUAUCUCAGGAUAUCAUGUCAAAGACAUGAGGAUCACCCAUGUACCAGGAAACUGGUUAUGAGAAGGGAGAUAGAUUCG [Mat - Same State 2 - Mod - D37] (puzzle: Same State 2) |  |  |  |  |  | apparent KD of MS2 coat protein (MS2 coat protein [1]; Eterna round: R95, input ligand: FMN 200 uM): 235 nM; apparent KD of MS2 coat protein (MS2 coat protein [1]; Eterna round: R95, input ligand: microRNA oligo, concentration not stated): 134 nM; apparent KD of MS2 coat protein (MS2 coat protein [1]; Eterna round: R95, input ligand: none): 233 nM |
| GGCCAGAGUCAAGGAUAUGCUACCGUUUCGGUAGCAGAAGGUGAUCACAUGAGGAUCACCCAUGUAUACGCUGGAAAGCGGGCC [JL SSNG1 3.64] (Eterna round: R96, puzzle: Same State NG 1) |  |  |  |  |  | apparent KD of MS2 coat protein (MS2 coat protein [1]; input ligand: FMN 200 uM): 452 nM; apparent KD of MS2 coat protein (MS2 coat protein [1]; [3]): 480 nM; apparent KD of MS2 coat protein (MS2 coat protein [1]; input ligand: none): 1430 nM |
| GACGUGAAGGCAGGAUAUGGGAAAGGAAGUGUACCAGAAGGGCCUGGAAAACAUGAGGAUCACCCAUGUGAACCCACGUCAGUU [PowerStrip SSNG 1.26] (Eterna round: R96, puzzle: Same State NG 1) |  |  |  |  |  | apparent KD of MS2 coat protein (MS2 coat protein [1]; input ligand: FMN 200 uM): 16 nM; apparent KD of MS2 coat protein (MS2 coat protein [1]; [3]): 35.4 nM; apparent KD of MS2 coat protein (MS2 coat protein [1]; input ligand: none): 27.9 nM |
| AAAAGACAUGAGGAUCACCCAUGUAGAGAUACCAGAUGCAUGGACAUCCCUUGGCAGCUCGUCACUUUCUAUAUUUUCCAGACGC [theeternabot_sameState_MS2_Theo_A_37] | 31 nM | 59.1 nM | 59.1 nM |  |  |  |
| ACGUCCGGAUUGAUCGUGGGCAUGGUCGAUACCAGUAUUUUAAUCUACCCUUGGCAGCGACAUGAGGAUCACCCAUGUGCGAUGA [XTheo A #19] | 16.1 nM | 21.5 nM | 16.2 nM |  |  |  |
| CACGCACGAUCGGCCGCCACUCAUGUAGCUUACAUGAGGAUCACCCAUGUAUUUUCUUUCUUAUAGAGGACCGGGAUCGUGCGUG [#04 Same State - Tryptophan B] | 21 nM | 28.2 nM |  | 24.5 nM |  |  |
| ACGAACGCACCUGAGGAACACCCAGGUGAUACCAGCCUGGAAACAGGCCCUUGGCAGCACCUAAAAUAAAGGUAACGUUCGAAUA [TheoAX8 #MicroSwitchBubble #AlternativeMS2] | 171 nM | 231 nM | 98.9 nM | 180 nM | 126 nM |  |
| ACAUGAGGAUCACCCAUGUAAUAAUCAGAAGGAGCGUGGAAUAACACAGGUAGGUCGCUGAUGUUUGGUUAAAUGUAAUCGUGUA [JR_SSArginiA_Sub001] | 13 nM | 18.1 nM | 17.1 nM | 17.6 nM | 13.5 nM |  |
| GCGACACUCACGGCCGCCACUGAUUAGCCCAGUAUGGAGCCCACACAUGAGGAUCACCCAUGUCACAGGACCGGGUGGGUCUAUU [theeternabot_sameState_MS2_Trp_B_23] | 22.8 nM | 42.1 nM |  | 25.5 nM |  |  |
| GGAGCUACGUCGGCCGCCACUAGCGGGUAUUGCGUGUACAUGAGGAUCACCCAUGUAAUAUGGCCUAGGACCGGGACGUAGCUCC [Bison] | 13.3 nM | 22.4 nM | 16.5 nM | 16.9 nM | 16.7 nM |  |
| ACACGGAAUGAUGGAUCACCUCGUUAAUAACGAGGACCGGUACGGCCGCCACUCGAAAACCGUGACCUGUACGAAAAGUGCAGGA [TrypAS 15 #SwitchBubble #HomemadeMS2 #StaticStrem #MS2Early] | 27.3 nM | 314 nM | 76.1 nM | 488 nM | 33.6 nM |  |
| GCUAGGUCUACGGCCGCCACUAGACGUGGGUAAGACAUGAGGAUCACCCAUGUACUACGGGCGCUUAGGACCGGGUAGACCUAGC [SSTB NP+V+V2 #17 +-Same Structure] | 116 nM | 187 nM |  | 285 nM |  |  |
| GAUUACAUGAGGAUCACCCAUGUAACUGAAGGAGCGGUAAUAAAGCCAGGUAGGUCGCAGAACAACAUGUGGUUCAUCCAUGUAA [#14 Exclusion - Arginine A] | 23.2 nM | 35 nM | 21.3 nM | 26.8 nM | 20.1 nM |  |
